Experimental data reported in the nanobody polyreactivity screen of Harvey et al. (2022).

test: yeast display, Sf9 membrane polyspecificity reagent, FACS + sequencing; frameworks hold sequencing errors
Summary of the method: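 A nanobody's polyreactivity label depends on the gate it was sorted from. Yeast display cells were stained with 10% biotinylated, detergent-solubilized Sf9 membrane reagent for 1 hour at 4 °C, enriched on streptavidin microbeads and sorted by FACS. The low and high (top ~1%) gates were set on anti-HA fluorescence for expression and streptavidin fluorescence for reagent binding.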

Sequence	polyreactivity (PSR sort gate)
QVQLVESGGGLVQAGGSLRLSCAASGSTFEANAMGWYRQAPGKERELVAVITWTGGSTYYADSVKGRFTISRDNAKNTVYLQMNSLKPEDTAVYYCAADGVVPGRFFWPAHEYDYWGQGTQVTVSS	low polyreactivity
QVQLVESGGGLVQAGGSLRLSCAASGSTFEDNAMGWYRQAPGKERELVAAITTGGGSTYYADSVKGRFTISRDNAKNTVYLQMNSLKPEDTAVYYCAVYRYYGFSLWYDYWGQGTLVTVSS	low polyreactivity
QVQLVESGGGLVQAGGSLRLSCAASGSTFEFNDMGWYRQAPGKERELVASIRHSDGSTYYADSVKGRFTISRDNAKNTVYLQMNSLKPEDTAVYYCNKAFQWSGGQVSYDYWGQGTQVTVSS	low polyreactivity
QVQLVESGGGLVQAGGSLRLSCAASGSTFEQYAMGWYRQAPGKERELVAAINRGGSTYYADSVKGRFTISRDNAKNTVYLQMKSLKPEDTAVYYCAVYAFVRYRSRYGYWGQGTQVTVSS	high polyreactivity
QVQLVESGGGLVQAGGSLRLSCAASGSTFERYAMGWYRQAPGKKGSWLPYADSVKGRFTISRDNAKNTVYLQMNSLKPEDTAVYYCNAERYSPTLNLDRGWEYDYWGQGTQVTVSS	low polyreactivity
QVQLVESGGGLVQAGGSLRLSCAASGSTFERYVMGWYSQAPGKARELVADINSGGSTNYADSVKGRFTISRDNAKNTVYLQMNSLKPEDTAVYYCAAKRRYYGPWSRMGYDYWGQGTQVTVSS	low polyreactivity
QVQLVESGGGLVQAGGSLRLSCAASGSTFESNAMGWNRQAPGKERDLVASISGSGGSTFYADSVKGSFTISRDNAKNTVYLQMNILKPEDTGVYYCAAYKEPYYEEYGYWGQGTQVTVSS	low polyreactivity
QVQLVESGGGLVQAGGSLRLSCAASGSTFESNAMGWYRQAPGKERELVAAISRGGNTYYADSVKGRFTISRDNAKNTVYLQMNSLKPEDTAVYYCAADGAGWLDYGYWGQGTQVTVSS	low polyreactivity
QVQLVESGGGLVQAGGSLRLSCAASGSTFESNTMGWYIQAPGKERELVAAISYSGGRTYYADSVKGRFTISRDNAKNTVYLQMNSLKPEDTAVYYCAARTFRISRMDYWGQGTQVTESS	high polyreactivity
QVQLVESGGGLVQAGGSLRLSCAASGSTFESYAMVWYRQAPGKERELVAAISRRGGRTYYADSVKGRFTISRDNAKNTVYLQMNSLKPEDTAVYYCATDSSYYGSDDYWGQGTQVTVSS	high polyreactivity
QVQLVESGGGLVQAGGSLRLSCAASGSTFEVNAMGWYRQAPGKERELVASITDGGITNYADSVKVRFTISRDNAKNTVYLQMNSLKPEDTAVYYCAAVGWYYSYYYFWGGYWGQGTQVTVSS	high polyreactivity
QVQLVESGGGLVQAGGSLRLSCAASGSTFEWNAMGWYRQAPGKERELVAAISGTGGNTYYADSVKGRFTISRYNAKNTVYLQMNSLKPEDTAVYYCNTDYGEYSSWDLQWWYIPYDYWGQGTQVTVSS	low polyreactivity
QVQLVESGGGLVQAGGSLRLSCAASGSTFEYNAMRWYRQAPGKERELVAAITWSVGSTYYADSVKGRFTISRDNAKNSVSIQMNSLKPEDTAVDYCARVPSAFARWHTYDYWGQGTQVTVSS	low polyreactivity
QVQLVESGGGLVQAGGSLRLSCAASGSTFEYYAMGWYRQAPGKERELVAAISTSGGSTYYADSVKGRFTISRDNAKNTVYLQMNSLKPEDTAVYYCNRGRRYSHKYDYWGQGTQVTVSS	high polyreactivity
QVQLVESGGGLVQAGGSLRLSCAASGSTFEYYAMGWYRQAPGKERELVAAITRRGGSTYYADSVKGRFTISRDNAKNTVYLQMNSLKPEDTAVYYCAAVPTQKSPRTHDYWGQGTQVTVSS	low polyreactivity
QVQLVESGGGLVQAGGSLRLSCAASGSTFEYYAMGWYRQAPGKERELVATITFGGGSTYYADSVKGRFTISRDNAKNTVYLQMNSLKPEDTAVYYCAADSGYLGIYGDEYSWGQGTQVTVSS	low polyreactivity
QVQLVESGGGLVQAGGSLRLSCAASGSTFEYYAMGWYRQAPGKERELVATMSIDGRTNYADSVKGRFTISRDNAKNTVYLQMNSLKPEDTAVYYCAARPYWRHRYDYWGQGTQVTVSS	low polyreactivity
QVQLVESGGGLVQAGGSLRLSCAASGSTFFANAMGWFRQAPGKAREFVAVITWGGSTYYADSVKGRFTISRDNAKNSVYLQMNSLKPEDTAVYYCNADYQPPGILYHWWRYYRGDYWGQGTQVTVSS	low polyreactivity
QVQLVESGGGLVQAGGSLRLSCAASGSTFFCYAMGWYRQAPGKERELVAAISRSGDRTYYADSVKGRFTISRDNAKNTVYLQMKSLKPEDTAVYYCAAKGFKPSDWGQGTQVTVSS	high polyreactivity
QVQLVESGGGLVQAGGSLRLSCAASGSTFFDYAMGWYRQAPGKERELVAAISRSGDTNYADSVKGRFTISRDNAKNTVYLQMNSLKPEDTAVYYCAKDWAYRRHWVGFYYWGQGTQVTVSS	low polyreactivity
QVQLVESGGGLVQAGGSLRLSCAASGSTFFGNTMGWYRKAPGKERELVATITRRGGSTYYADSVKGRFTISRDNAKNTVYLQMNSLKPEDTAVYYCAKRGPYTKYDYWGQGTQVTVSS	low polyreactivity
QVQLVESGGGLVQAGGSLRLSCAASGSTFFGYAMGWYRQAPGKERELVAAIRYNGGRTYYADSVKGRFTISRDNAKNTVYLQMNSLKPEDTAVYYCAAYISYSRTYYYWGQGTQVTVSS	low polyreactivity

Sequence	polyreactivity (PSR sort gate)
QVQLVESGGGLVQAGGSLRLSCAASGSTFFGYTMGWYRQARGKERELVAAITRRGGSTYYADSVKGRFTISRDNAKNTVYLQLNSLKPEDTAVYYCNAVSKSTNYAGRYDYWGQATQVTVSS	high polyreactivity
QVQLVESGGGLVQAGGSLRLSCAASGSTFFIKAMGWYRQAPGKERELVAAITSTDSTTYADSVKGRFTISRDNAKNTVYLQMNSLKPEDTAVYYCAKETIGQDPVSGAWARHEYDYWGQGTQVTVSS	low polyreactivity
QVQLVESGGGLVQAGGSLRLSCAASGSTFFINAMGWYRQEHGTEREFVASISYSGGSTYYADSVKGRFTISRDNAKNTVYLQMNSLKPEDTAVYYCNADVRVFLHYSKYNYWGQGTQVTVSS	low polyreactivity
QVQLVESGGGLVQAGGSLRLSCAASGSTFFIYAMGWYRQAPGKERELVAAISWRDGSTYYADSVKGRFTISRDNAKNTVYLQMNSLKPEDTAVYYCAADYLLPWGIELDYWGQGTQVTVSS	high polyreactivity
QVQLVESGGGLVQAGGSLRLSCAASGSTFFKNTMGWYRQAPGKEREFVAAIRWSTSRTYYADSVKGRFTISRDNAKYTVYLQMTSLKPEDTAVYYCNAGTSLSRRYPEDYYWGQGTQVTVSS	high polyreactivity
QVQLVESGGGLVQAGGSLRLSCAASGSTFFLKAMGWYRQSPGKERELVAAISYSDSGTNYADSVKGRFTISRDNAKNTVYLQMNSLKPEDTAVYYCATAVRPWYVTSGNYWGQGTQVTVSS	low polyreactivity
QVQLVESGGGLVQAGGSLRLSCAASGSTFFLYAMGWYRQAAGKERELVAAISVSGGSTRYADSVNGRFTISRDHAKNTVYLQMNSLKPEDTAVYYCAAASRLEYSHATLYYWGQGTQVTVSS	high polyreactivity
QVQLVESGGGLVQAGGSLRLSCAASGSTFFLYAMGWYRQAPGKEREFVAAISIGGSTNYADSVKGRFTISRDNAKNTVYLQMNSLKPEDTAVYYCAKLDLQYIQYLGYDYWGQGTQVTVSS	low polyreactivity
QVQLVESGGGLVQAGGSLRLSCAASGSTFFPYAMGWYRQAPGKERELVAAIRWSGGRTYYADSVKGRFTISRDNAKNTVYLQMNSLKPEDTAVYYCAADKYLDYDYWGQGTQVTVSS	high polyreactivity
QVQLVESGGGLVQAGGSLRLSCAASGSTFFPYAMGWYRQAPGKVRELVAAIRWSGGRTYYADSVKGRFTISRDNAKNTVFLQMNSLNPEDTAVYYCAAYKYLDYDYGGQGTQVTVSS	high polyreactivity
QVQLVESGGGLVQAGGSLRLSCAASGSTFFRNAMGCYRQAPGKERELVADISASGGSTYYADSVKGRFTISRDNAKNTVYLQMNSLKPEDTAVYYCNALYIYFYNYLTMDYWGQGTQVTVSS	low polyreactivity
QVQLVESGGGLVQAGGSLRLSCAASGSTFFSNTMGWYRQAPGKERELVAAITSRGGRTYYADSVKGRFTISRDNAKNTVYLQMNSLKPEDTAVYYCAARFVLHGVYLKFYWGQGTQVTVSS	high polyreactivity
QVQLVESGGGLVQAGGSLRLSCAASGSTFFSYAMGWYRQAPGKERELVAAISWIDDGTYYADSVKGRFTISRDNAKNTVYLQMNSLKPEDTAVYYCAATKFWYYGYDYWGQGTQVTVSS	low polyreactivity
QVQLVESGGGLVQAGGSLRLSCAASGSTFFTNAMGWYRPAPGKERELVAAITINDGSTFYADSVKGRFTISRDNAKNSDYLQMNSLKPEDTAVYYCNTDGVDLYDYWGQGTQVTVSS	low polyreactivity
QVQLVESGGGLVQAGGSLRLSCAASGSTFFTNAMGWYRQAPGKERELVAAITINDGSTFYADSVKGRFTISRDNAKNTVYLQMNSLKPEDTAVYYCNADGVDLYDYWGQGTQVTVSS	low polyreactivity
QVQLVESGGGLVQAGGSLRLSCAASGSTFFTNVMGWYRQAPGKERELVAVIRWRGSDTYYADSVKGRFTISRDNAKNTVYLQMNSLKPEDTAVYYCNAIESFYPTTGEQGYSYDYWGQGTQVTVSS	low polyreactivity
QVQLVESGGGLVQAGGSLRLSCAASGSTFFVNAMGWYRQAPGKERELVASITVSSGRTYYADSVKGRFTISRDNAKNTVYLQMNSLKPEDTAVYYCAARHLYWRREGYYWGQGTQVTVSS	high polyreactivity
QVQLVESGGGLVQAGGSLRLSCAASGSTFFVYDMGWYRQAPGKERELVAAISSDTSTNYADSVKGRFTISRDNAKNTVYLQMNSLKPEDTAVYYCNADSYWEYDYWGQGTQVTVSS	low polyreactivity
QVQLVESGGGLVQAGGSLRLSCAASGSTFFYNAMGWYIQAPGKERELVAAITVTGTSTYYADSVKGRFTISRDNAKNTVYLQMNSLKPEDTGVYYCNTSLKRRRLRFNYWGQGTQVTVSS	low polyreactivity
QVQLVESGGGLVQAGGSLRLSCAASGSTFFYYAMGWYRQAPGKERELVARITRGGGSTNYADSVKGRFTISRDNAKNTVYLQMNSLKREDTAVYYCAKRRKVTYDYWGQGTQVTVSS	high polyreactivity
QVQLVESGGGLVQAGGSLRLSCAASGSTFFYYAMGWYRQAPGKERELVATIRGSAGRTYYADSVKGRFTISRDNAKNTVYLQMNSLKPEDTAVYYCARRYWPGSAYWIYDYWGQGTQVTVSS	high polyreactivity
